Test results published in patent publication US20200071417A1 (MARENGO THERAPEUTICS, published 2020).

How the values were obtained:
mouse CCR2 = target: T1, mouse CCR2 (mouse, UniProt P51683 1-373); assay: flow cytometry on transiently transfected ExpiCHO cells expressing mouse CCR2 only
T1 construct: whole, on cells; the mouse protein was used in the assays; also called mCCR2
Procedure: (§1) ExpiCHO cells were transiently transfected with mouse CCR2, mouse CSF1R, or both mouse CCR2 and CSF1R, according to the manufacturer's instructions. In brief, the transfections were performed with ExpiCHO cells at a cell density of 5.6-6.3×10⁶ cells/mL and at least 95% viability. For each transfection, 25 μg of DNA was diluted with 1 mL of OptiPro SFM (Gibco 12309050) and filtered using spin-X centrifuge tube filters (Corning 8160). A solution of 920 μL of OptiPro and 80 μL of expifectamine was added to the filtered DNA, incubated for 1 minute at room temperature, and then added to the cells. On day 1 of the transfection, the cells were enhanced using 150 μL of ExpiCHO enhancer.
(§2) On day 2 of the transfection, the cells were washed with PBS containing 1% BSA (Sigma) and used to set 96-well V-bottom plates (Biotix AP-0350-9CVS) with 100,000 cells/well. UniTI-01 was added to the cells in serial dilutions and incubated for 1 hour at 4° C. The plates were washed twice with PBS containing 1% BSA. […] The plates were read on a CytoFLEX S (Beckman Coulter). Data were calculated as the median fluorescence intensity of the PE-positive population vs. the median fluorescence intensity of the PE-negative population. The data was normalized for the percent of total median fluorescence intensity. […]

mouse CSF1R = target: T2, mouse CSF1R (mouse, UniProt P09581 20-977); assay: flow cytometry on transiently transfected ExpiCHO cells expressing mouse CSF1R only
T2 construct: whole, on cells; the mouse protein was used in the assays; also called mCSF1R
T2 sequence (looked up): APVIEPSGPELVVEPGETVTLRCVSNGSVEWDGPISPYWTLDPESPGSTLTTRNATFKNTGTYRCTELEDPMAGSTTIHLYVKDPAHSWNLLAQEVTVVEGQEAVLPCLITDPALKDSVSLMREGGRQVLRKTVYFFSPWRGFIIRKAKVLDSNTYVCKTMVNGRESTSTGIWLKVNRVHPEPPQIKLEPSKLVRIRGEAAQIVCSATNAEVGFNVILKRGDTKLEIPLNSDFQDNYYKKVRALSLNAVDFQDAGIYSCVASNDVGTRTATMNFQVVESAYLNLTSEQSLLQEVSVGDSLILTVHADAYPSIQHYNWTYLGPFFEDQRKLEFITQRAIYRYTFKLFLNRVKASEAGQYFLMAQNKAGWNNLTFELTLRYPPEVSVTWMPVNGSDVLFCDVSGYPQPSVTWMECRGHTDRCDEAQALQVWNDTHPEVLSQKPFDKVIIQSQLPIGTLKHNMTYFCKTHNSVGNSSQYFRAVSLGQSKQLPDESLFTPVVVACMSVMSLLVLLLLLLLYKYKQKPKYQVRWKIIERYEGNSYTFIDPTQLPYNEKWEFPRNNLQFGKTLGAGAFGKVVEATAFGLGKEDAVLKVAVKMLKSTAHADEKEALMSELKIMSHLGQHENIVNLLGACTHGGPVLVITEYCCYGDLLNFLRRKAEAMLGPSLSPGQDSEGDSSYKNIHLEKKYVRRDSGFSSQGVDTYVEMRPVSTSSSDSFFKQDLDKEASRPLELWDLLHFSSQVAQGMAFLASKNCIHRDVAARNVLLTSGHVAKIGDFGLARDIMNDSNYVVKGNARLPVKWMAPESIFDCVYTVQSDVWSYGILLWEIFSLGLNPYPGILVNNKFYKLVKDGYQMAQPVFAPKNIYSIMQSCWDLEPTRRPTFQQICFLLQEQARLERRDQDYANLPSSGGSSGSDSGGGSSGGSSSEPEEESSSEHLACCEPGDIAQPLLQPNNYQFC
Procedure: as §1, §2

[1] = target: T3, mouse CCR2 and mouse CSF1R co-expressed on the same ExpiCHO cells (mouse, UniProt P51683 1-373; P09581 20-977); assay: flow cytometry on transiently transfected ExpiCHO cells expressing both mouse CCR2 and mouse CSF1R
T3 construct: whole, on cells; also called both mCCR2 and mCSF1R; CCR2 and CSF1R double positive cells
Procedure: as §1, §2

T1 sequence (P51683 whole entry): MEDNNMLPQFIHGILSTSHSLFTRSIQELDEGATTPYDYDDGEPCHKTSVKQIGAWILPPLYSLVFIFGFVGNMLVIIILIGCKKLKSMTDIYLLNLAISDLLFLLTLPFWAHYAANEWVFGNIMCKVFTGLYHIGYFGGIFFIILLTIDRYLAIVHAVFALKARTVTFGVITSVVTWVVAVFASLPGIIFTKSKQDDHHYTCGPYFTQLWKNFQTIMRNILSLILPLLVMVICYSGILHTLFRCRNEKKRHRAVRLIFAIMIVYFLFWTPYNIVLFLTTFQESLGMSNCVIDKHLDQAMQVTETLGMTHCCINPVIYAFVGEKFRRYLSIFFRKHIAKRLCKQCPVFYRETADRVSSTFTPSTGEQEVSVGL
T3 sequence (P51683 whole entry, one chain of several): as the sequence (P51683 whole entry) above

B1: UniTI-01 (multispecific molecule #1), anti-CCR2/anti-CSF1R bispecific antibody (bispecific antibody)
heavy 1: QVQLQESGPGLVQPSQTLSLTCTVSGFSLTDFSVHWVRQPPGKGLEWMGRIRSEGNTDYNSALKSRLSISRDTSKSQVFLKMNSLQTEDTAIYFCTRGDILGFGYWGQGVMVTVSSAQTTAPSVYPLAPGCGDTTSSTVTLGCLVKGYFPEPVTVTWNSGALSSDVHTFPAVLQSGLYTLTSSVTSSTWPSQTVTCNVAHPASSTKVDKKVERRTIKPCPPCKCPAPNLLGGPSVFIFPPKIKDVLMISLSPIVTCVVVDVSEDDPDVQISWFVNNVEVHTAQTQTHREDYNSTLRVVSALPIQHQDWMSGKEFKCKVNNKDLPAPIERTISKPKGSVRAPQVYVLPPCEEEMTKKQVTLWCMVTDFMPEDIYVEWTNNGKTELNYKNTEPVLDSDGSYFMYSKLRVEKKNWVERNSYSCSVVHEGLHNHHTTKSFSRTPGK
light 1: DIVMTQSPLSVSVTPGESASISCRSSKSLLHFKGITFVYWYLQKPGQSPQLLIFRMSSLASGVPDRFSGSGSETDFTLKISRVEAEDVGTYYCGQLLENPYTFGAGTKLELKRADAAPTVSIFPPSMEQLTSGGATVVCFVNNFYPRDISVKWKIDGSEQRDGVLDSVTDQDSKDSTYSMSSTLSLTKVEYERHNLYTCEVVHKTSSSPVVKSFNRNEC
heavy 2: QVQLQQSGAELVKPGSSVKISCKASGYTFTSNFMHWIKQQPGNGLEWIGWIYPGDGDTEYNQKFNGKATLTADKSSSTAYMQLSSLTSEDSAVYFCAVNYGGYVLDAWGQGASVTVSSAETTAPSVYPLAPGTALKSNSMVTLGCLVKGYFPEPVTVTWNSGALSSGVHTFPAVLQSGLYTLTSSVTVPSSTWSSQAVTCNVAHPASSTKVDKKIVPRECNTIKPCPPCKCPAPNLLGGPSVFIFPPKIKDVLMISLSPIVTCVVVDVSEDDPDVQISWFVNNVEVHTAQTQTHREDYNSTLRVVSALPIQHQDWMSGKEFKCKVNNKDLPAPIERTISKPKGSVRAPQVCVLPPPEEEMTKKQVTLSCAVTDFMPEDIYVEWTNNGKTELNYKNTEPVLDSDGSYFMVSKLRVEKKNWVERNSYSCSVVHEGLHNHHTTKSFSRTPGK
light 2: EIVLTQSPTTMAASPGEKVTITCRASSSTNYMSWYQQKSGASPKPWIYETSKLASGVPDRFSGSGSGTSYSFTISSMETEDAATYYCHQWSSTPLTFGSGTKLEIKRADAAPTVSIFPPSMEQLTSGGATVVCFVNNFYPRDISVKWKIDGSEQRDGVLDSVTDQDSKDSTYSMSSTLSLTKVEYERHNLYTCEVVHKTSSSPVVKSFNRNEC
notes: Knob-in-hole heterodimer with one anti-CCR2 arm and one anti-mCSF1R arm
EC50 (mouse CCR2): 15 nM | EC50 (mouse CSF1R): 1 nM | EC50 [1]: 0.4 nM
